The source of these data is patent US20060194739 (published 2006).

Sequences and labels used below:
B1: VII-57-C (peptide)
chain: Ac-RYYRW[Ahx]-NH2
SMILES: CC(=O)N[C@@H](CCCNC(=N)N)C(=O)N[C@@H](Cc1ccc(O)cc1)C(=O)N[C@@H](Cc1ccc(O)cc1)C(=O)N[C@@H](CCCNC(=N)N)C(=O)N[C@@H](Cc1c[nH]c2ccccc12)C(=O)NCCCCCC(N)=O
B2: VII-4-B (peptide)
chain: [Ac6c]RYYRWR-NH2
modifications: N-terminus assumed
SMILES: N=C(N)NCCC[C@H](NC(=O)[C@H](Cc1c[nH]c2ccccc12)NC(=O)[C@H](CCCNC(=N)N)NC(=O)[C@H](Cc1ccc(O)cc1)NC(=O)[C@H](Cc1ccc(O)cc1)NC(=O)[C@H](CCCNC(=N)N)NC(=O)C1(N)CCCCC1)C(N)=O
B3: VII-51-A (peptide)
chain: Ac-RYYR[Trp(5-CN)]R-NH2
SMILES: CC(=O)N[C@@H](CCCNC(=N)N)C(=O)N[C@@H](Cc1ccc(O)cc1)C(=O)N[C@@H](Cc1ccc(O)cc1)C(=O)N[C@@H](CCCNC(=N)N)C(=O)N[C@@H](Cc1c[nH]c2ccc(C#N)cc12)C(=O)N[C@@H](CCCNC(=N)N)C(N)=O
B4: VII-55-A (peptide)
chain: Ac-RYY[Ahx]WR-NH2
SMILES: CC(=O)N[C@@H](CCCNC(=N)N)C(=O)N[C@@H](Cc1ccc(O)cc1)C(=O)N[C@@H](Cc1ccc(O)cc1)C(=O)NCCCCCC(=O)N[C@@H](Cc1c[nH]c2ccccc12)C(=O)N[C@@H](CCCNC(=N)N)C(N)=O
B5: IV-41-B (peptide)
chain: Hexanoyl-RYYRAR-NH2
SMILES: CCCCCC(=O)N[C@@H](CCCNC(=N)N)C(=O)N[C@@H](Cc1ccc(O)cc1)C(=O)N[C@@H](Cc1ccc(O)cc1)C(=O)N[C@@H](CCCNC(=N)N)C(=O)N[C@@H](C)C(=O)N[C@@H](CCCNC(=N)N)C(N)=O
B6: IV-35-B (peptide)
chain: Hexanoyl-RAYRWR-NH2
SMILES: CCCCCC(=O)N[C@@H](CCCNC(=N)N)C(=O)N[C@@H](C)C(=O)N[C@@H](Cc1ccc(O)cc1)C(=O)N[C@@H](CCCNC(=N)N)C(=O)N[C@@H](Cc1c[nH]c2ccccc12)C(=O)N[C@@H](CCCNC(=N)N)C(N)=O
B7: IV-23-B (peptide)
chain: Propionyl-RAYRWR-NH2
SMILES: CCC(=O)N[C@@H](CCCNC(=N)N)C(=O)N[C@@H](C)C(=O)N[C@@H](Cc1ccc(O)cc1)C(=O)N[C@@H](CCCNC(=N)N)C(=O)N[C@@H](Cc1c[nH]c2ccccc12)C(=O)N[C@@H](CCCNC(=N)N)C(N)=O
B8: IV-29-B (peptide)
chain: Propionyl-RYYRAR-NH2
SMILES: CCC(=O)N[C@@H](CCCNC(=N)N)C(=O)N[C@@H](Cc1ccc(O)cc1)C(=O)N[C@@H](Cc1ccc(O)cc1)C(=O)N[C@@H](CCCNC(=N)N)C(=O)N[C@@H](C)C(=O)N[C@@H](CCCNC(=N)N)C(N)=O
B9: IV-21-C (peptide)
chain: Propionyl-AYYRWR-NH2
SMILES: CCC(=O)N[C@@H](C)C(=O)N[C@@H](Cc1ccc(O)cc1)C(=O)N[C@@H](Cc1ccc(O)cc1)C(=O)N[C@@H](CCCNC(=N)N)C(=O)N[C@@H](Cc1c[nH]c2ccccc12)C(=O)N[C@@H](CCCNC(=N)N)C(N)=O
B10: IV-39-B (peptide)
chain: Hexanoyl-RYYAWR-NH2
SMILES: CCCCCC(=O)N[C@@H](CCCNC(=N)N)C(=O)N[C@@H](Cc1ccc(O)cc1)C(=O)N[C@@H](Cc1ccc(O)cc1)C(=O)N[C@@H](C)C(=O)N[C@@H](Cc1c[nH]c2ccccc12)C(=O)N[C@@H](CCCNC(=N)N)C(N)=O
B11: IV-33-B (peptide)
chain: Hexanoyl-AYYRWR-NH2
SMILES: CCCCCC(=O)N[C@@H](C)C(=O)N[C@@H](Cc1ccc(O)cc1)C(=O)N[C@@H](Cc1ccc(O)cc1)C(=O)N[C@@H](CCCNC(=N)N)C(=O)N[C@@H](Cc1c[nH]c2ccccc12)C(=O)N[C@@H](CCCNC(=N)N)C(N)=O
B12: IV-27-B (peptide)
chain: Propionyl-RYYAWR-NH2
SMILES: CCC(=O)N[C@@H](CCCNC(=N)N)C(=O)N[C@@H](Cc1ccc(O)cc1)C(=O)N[C@@H](Cc1ccc(O)cc1)C(=O)N[C@@H](C)C(=O)N[C@@H](Cc1c[nH]c2ccccc12)C(=O)N[C@@H](CCCNC(=N)N)C(N)=O
B13: IV-12-B (peptide)
chain: Ac-R[dY]Y[dR]WR-NH2
SMILES: CC(=O)N[C@@H](CCCNC(=N)N)C(=O)N[C@H](Cc1ccc(O)cc1)C(=O)N[C@@H](Cc1ccc(O)cc1)C(=O)N[C@H](CCCNC(=N)N)C(=O)N[C@@H](Cc1c[nH]c2ccccc12)C(=O)N[C@@H](CCCNC(=N)N)C(N)=O

Non-standard residues stand in square brackets, D forms with d. No end group written: not given here. *: point of attachment. Trp(5-CN) = N#Cc1ccc2[nH]cc(C[C@H](N)C(=O)O)c2c1; Ac6c = NC1(C(=O)O)CCCCC1; Hexanoyl = CCCCCC(=O)*; Propionyl = CCC(=O)*; Ahx = NCCCCCC(=O)O

The first experiment has as its target ORL1 (UniProt P41146). Briefly: competition.
As usually defined, the Ki is a dissociation constant, usually derived from enzyme kinetics or from competition with a known ligand. Lower therefore signals a stronger hold on the target. In turn, B1 came in with a Ki of 41.9 nM.
B2 came in with an inhibition constant Ki of 9.25 nM.
As to B3, affinity was put at a Ki of 0.3 nM.
On the same count and under the same terms, the figure for B4 is 39 nM.

A further experiment concerns the target ORL1 (UniProt P41146). Briefly: competition. This is another data set of the same source.
In general, IC50 refers to the point on the concentration scale where inhibition reaches its midpoint. A lower IC50 goes with higher potency. Molecule B5 came in with an IC50 of 710 nM.
The same measure, in the same setting: for B6 the value was 113 nM.
Still for that read-out and setting: the figure for B7 is 182 nM; for B8 it is 1890 nM; for B9 it is 1780 nM.
On the same count and under the same terms, for B10 the value was 1000 nM; for B11, 1020 nM.
The molecule B12 had an IC50 of 400 nM.

A further experiment deals with ORL1 (UniProt P41146). Briefly: competition, [3H]nociceptin.
Sequence of ORL1 (P41146 whole entry): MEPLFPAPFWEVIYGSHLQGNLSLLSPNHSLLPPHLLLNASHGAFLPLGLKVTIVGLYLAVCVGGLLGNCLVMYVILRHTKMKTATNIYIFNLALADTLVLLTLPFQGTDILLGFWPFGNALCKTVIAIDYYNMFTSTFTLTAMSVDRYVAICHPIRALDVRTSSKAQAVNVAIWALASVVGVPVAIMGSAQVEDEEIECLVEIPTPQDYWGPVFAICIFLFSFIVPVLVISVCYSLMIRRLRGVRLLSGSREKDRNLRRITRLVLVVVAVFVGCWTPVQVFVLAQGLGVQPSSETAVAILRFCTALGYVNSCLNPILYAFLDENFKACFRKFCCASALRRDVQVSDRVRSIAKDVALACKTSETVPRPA
In turn, B13 yielded a half-maximal inhibitory concentration (IC50) of 1140 nM.
